Results published in article PMC9559756.

How the values were obtained:
[1] = target: untagged-cpAQP1aa-243 (C-terminally truncated aquaporin 1aa from Anabas testudineus, climbing perch) (Anabas testudineus (climbing perch)); assay: crystal structure; untagged-cpAQP1aa-243, hanging-drop vapor diffusion, 4°C; reservoir 100 mM Tris-HCl pH 7.8, 5% γ-PGA, 30% PEG400, D-sorbitol additive; space group P42_(1)2, one monomer in the asymmetric unit; 1.9 Å
[2] = target: untagged-cpAQP1aa-243 (C-terminally truncated aquaporin 1aa from Anabas testudineus, climbing perch) (Anabas testudineus (climbing perch)); assay: crystal structure; untagged-cpAQP1aa-243, hanging-drop vapor diffusion, 4°C; reservoir 300 mM lithium sulfate, 100 mM ADA pH 6.5, 30% PEG400, dextran sulfate additive; space group C222_(1), four monomers in the asymmetric unit; 3.5 Å

stoichiometry N [1]: 4 | stoichiometry N [2]: 4
Substance: untagged-cpAQP1aa-243 (C-terminally truncated aquaporin 1aa from Anabas testudineus, climbing perch) (domain or fragment)
